According to patent US20250019422A1 (MAX PLANCK GESELLSCHAFT ZUR F RDERUNG DER WISSENSCHAFTEN E V, published 2025):
Like-named read-outs stand apart in the source and are kept apart here.

B1: Re32D03 (VHH)
VHH: QVQLVESGGGLVQPGGSLRLSCAISGITLDYYAVGWFLQAPGKEREGISCMRNWDGRTVYAPSVKGRFTISSDNAKKMVYLEMDNLKSEDTGVYYCAAGPLPPGISCRIPTPLGYDDWGQGTQVTVSS
B2: Re9B09 (VHH)
VHH: QVQLVESGGGLVQPGGSLRLSCAASGFTLDYYAIGWFRQAPGKEREGVSRISSSDGSTDYADSVKGRFTISRDNAKNTVYLQMNSLKPEDTAVYYCATVPGTYYSGNWYYTWHPEAVDYWGKGTQVTVSS
notes: also called ReB09
B3: Re5D06 (VHH)
VHH: QVQLVESGGGLVQPGGSLRLSCAASGITLDYYAIGWFRQAPGKEREGVSRIRSSDGSTNYADSVKGRFTMSRDNAKNTVYLQMNSLKPEDTAVYYCAYGPLTKYGSSWYWPYEYDYWGQGTQVTVSS
B4: Re6H06 (VHH)
VHH: QVQLVESGGGLVQPGGSLRLSCAASGVTLDYYAIGWFRQAPGKEREGVSCTSSSDGSTYYADSVKGRFTISRDNAKNTVYLQMNSLKPEDTGVYYCAVVPQTYYGGKYYSQCTANGMDYWGKGTLVTVSS

Assays:
B.1.617.2/Delta [1] = target: B.1.617.2/Delta
[2] = target: T1, RBD of the SARS-CoV-2 Omicron variant BA.2.75 (SARS-CoV-2 Omicron variant BA.2.75)
B.1.617.2/Delta [3] = target: B.1.617.2/Delta; remark: listed apart in the source
[4] = target: T1, RBD of the SARS-CoV-2 Omicron variant …; remark: listed apart in the source

Binder	Kd (B.1.617.2/Delta [1])	Kd [2]	Kd (B.1.617.2/Delta [3])	Kd [4]
B1	≤ 0.01 nM	0.35 nM		
B2	0.3 nM	2 nM		
B3			0.2 nM	
B4			0.1 nM	≥ 1000 nM
